In the assay the target is T1, sfGFP-MinD^D40AΔ10 (E. coli MG1655, UniProt P0AEZ3 1-260, D40A).
T1 construct: MinD of E. coli MG1655 with the D40A mutation and deletion of the C-terminal 10 amino acids, made from pET15-sfGFP-minD; 55 kDa after removal of the 2 kDa His-Tag (so in the source); also called MinD mutant treated by thrombin; His-sfGFP-MinD^D40AΔ10 (before cleavage); not shown: His tag, N-terminal, cleaved; sfGFP, N-terminal, kept
T1 sequence (looked up): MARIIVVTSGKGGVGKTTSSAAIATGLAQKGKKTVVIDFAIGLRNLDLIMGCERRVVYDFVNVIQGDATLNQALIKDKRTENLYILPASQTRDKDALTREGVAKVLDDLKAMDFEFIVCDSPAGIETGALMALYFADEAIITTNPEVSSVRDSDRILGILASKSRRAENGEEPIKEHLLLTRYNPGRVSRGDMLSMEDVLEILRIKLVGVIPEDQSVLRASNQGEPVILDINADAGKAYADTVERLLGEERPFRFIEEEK
Briefly: pull-down; His-tagged Min protein held on cOmplete His-Tag purification (Ni-NTA) resin; 9 µM MinE-mCherry-His, 3 µM His-sfGFP-MinD or 6 µM thrombin-treated MinD^D40AΔ10, with or without 3 µM BSA; RE buffer, 30 min, room temperature; washed with 20 mM imidazole, eluted with 250 mM imidazole; SDS-PAGE and CBB staining. As to conditions: both partners purified.

B1: MinE-mCherry-His (natural protein, E. coli K12 MG1655, UniProt P0A734 1-88, looked up)
chain: MALLDFFLSRKKNTANIAKERLQIIVAERRRSDAEPHYLPQLRKDILEVICKYVQIDPEMVTVQLEQKDGDISILELNVTLPEAEELK
notes: MinE, gene amplified from the E. coli K12 MG1655 genome and cloned into pET29a with mCherry (pET29-minE-mCherry-His); The 6xHis-tag was attached at the C-terminal of mCherry by PCR; the mCherry gene came from the pET21b-RL027A plasmid (Addgene); source: E. coli BL21-CodonPlus(DE3) RIPL, purified (His-Tag purification resin, HiTrap Q HP); not shown: mCherry, C-terminal, kept; 6xHis, C-terminal, …
For B1, the binding result is listed as “binds”.
